Measured values reported in patent US20250361296A1 (BIOCYTOGEN PHARMACEUTICALS BEIJING, published 2025).

T1: human SIGLEC4 on CHO-S-hSIGLEC4 cells (human, UniProt P20916 20-516)
T1 sequence: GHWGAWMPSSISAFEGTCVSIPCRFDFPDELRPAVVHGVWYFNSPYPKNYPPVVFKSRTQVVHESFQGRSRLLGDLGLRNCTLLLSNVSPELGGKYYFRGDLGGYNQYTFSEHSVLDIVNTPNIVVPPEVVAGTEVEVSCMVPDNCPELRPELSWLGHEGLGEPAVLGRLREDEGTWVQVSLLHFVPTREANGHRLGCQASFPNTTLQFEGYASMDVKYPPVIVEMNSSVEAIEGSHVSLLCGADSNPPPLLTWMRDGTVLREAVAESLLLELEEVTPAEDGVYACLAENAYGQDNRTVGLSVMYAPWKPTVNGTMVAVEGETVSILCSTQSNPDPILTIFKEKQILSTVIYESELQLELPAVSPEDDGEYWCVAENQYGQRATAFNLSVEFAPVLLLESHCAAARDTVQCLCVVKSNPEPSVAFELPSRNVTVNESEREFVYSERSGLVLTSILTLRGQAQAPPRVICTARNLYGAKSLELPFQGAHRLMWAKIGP

T2: human SIGLEC10 on CHO-S-hSIGLEC10 cells (human, UniProt Q96LC7 17-550)
T2 sequence: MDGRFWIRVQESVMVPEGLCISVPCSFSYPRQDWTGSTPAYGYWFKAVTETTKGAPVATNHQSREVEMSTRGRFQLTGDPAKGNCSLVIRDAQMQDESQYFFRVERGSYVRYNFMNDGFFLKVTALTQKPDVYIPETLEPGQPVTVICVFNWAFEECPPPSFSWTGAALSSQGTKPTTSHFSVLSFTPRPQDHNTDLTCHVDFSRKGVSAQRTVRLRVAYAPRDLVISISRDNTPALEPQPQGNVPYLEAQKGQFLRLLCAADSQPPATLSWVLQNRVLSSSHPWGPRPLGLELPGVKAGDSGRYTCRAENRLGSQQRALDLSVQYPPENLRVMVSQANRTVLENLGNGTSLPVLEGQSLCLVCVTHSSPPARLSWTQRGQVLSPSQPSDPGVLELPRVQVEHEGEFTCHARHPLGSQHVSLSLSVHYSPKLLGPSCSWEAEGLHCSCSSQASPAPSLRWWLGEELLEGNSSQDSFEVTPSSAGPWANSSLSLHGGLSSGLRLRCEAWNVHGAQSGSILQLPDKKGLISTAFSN


Columns and labels:
Assay in all cases: flow cytometry, CHO-S cells expressing the target; on Percentage of Positive Cells: test concentration or dose not given here
[1] = target: T1, human SIGLEC4 on CHO-S-hSIGLEC4 cells
Description: (§1) CHO-S-hSIGLEC15 cells, CHO-S-mSIGLEC15 cells, CHO-S-fasSIGLEC15 cells or CHO-S-dSIGLEC15 cells were transferred to a 96-well plate at a density of 5×10⁴ cells/well respectively. Serially diluted sample anti-SIGLEC15 antibodies were added to the 96-well plate, and incubated at 4° C. for 30 min. Then, the cells were incubated with the secondary antibody anti-hIgG-Fc-Alex Flour 647 (RL1-H) (Jackson ImmunoResearch Laboratories, Inc., 109-606-170) at 4° C. in the dark for 15 minutes before flow cytometry analysis.
(§2) Another similar experiment was performed to determine whether the anti-SIGLEC15 antibodies can bind with other SIGLEC family proteins. CHO-S-hSIGLEC1 cells (expressing hSIGLEC1, SEQ ID NO: 49)), CHO-S-hSIGLEC2 cells (expressing hSIGLEC2, SEQ ID NO: 50), CHO-S-hSIGLEC4 cells (expressing hSIGLEC4, SEQ ID NO: 51), CHO-S-hSIGLEC5 cells (expressing hSIGLEC5, SEQ ID NO: 52), CHO-S-hSIGLEC6 cells (expressing hSIGLEC6, SEQ ID NO: 53), CHO-S-hSIGLEC7 cells (expressing hSIGLEC7, SEQ ID NO: 54), CHO-S-hSIGLEC8 cells (expressing hSIGLEC8, SEQ ID NO: 55), CHO-S-hSIGLEC9 cells (expressing hSIGLEC9, SEQ ID NO: 56), CHO-S-hSIGLEC10 cells (expressing hSIGLEC10, SEQ ID NO: 57), CHO-S-hSIGLEC11 cells (expressing hSIGLEC11, SEQ ID NO: 58), CHO-S-hSIGLEC12 cells (expressing hSIGLEC12, SEQ ID NO: 59), CHO-S-hSIGLEC14 cells (expressing hSIGLEC14, SEQ ID NO: 60) or CHO-S-hSIGLEC16 cells (expressing hSIGLEC16, SEQ ID NO: 61) were used.

[2] = target: human SIGLEC6 on CHO-S-hSIGLEC6 cells (human, UniProt O43699 27-347)
Sequence of human SIGLEC6 on CHO-S-hSIGLEC6 cells (O43699 27-347): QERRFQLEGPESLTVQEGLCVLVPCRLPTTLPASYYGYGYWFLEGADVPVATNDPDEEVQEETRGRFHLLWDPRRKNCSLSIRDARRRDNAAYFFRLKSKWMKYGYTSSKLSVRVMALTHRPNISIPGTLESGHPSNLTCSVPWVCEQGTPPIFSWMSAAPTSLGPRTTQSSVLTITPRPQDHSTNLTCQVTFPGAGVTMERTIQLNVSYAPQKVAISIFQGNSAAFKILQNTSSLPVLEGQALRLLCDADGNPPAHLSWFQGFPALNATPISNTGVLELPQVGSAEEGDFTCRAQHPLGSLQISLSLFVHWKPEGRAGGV
Description: as §1, §2

[3] = target: human SIGLEC8 on CHO-S-hSIGLEC8 cells (human, UniProt Q9NYZ4 17-363)
Sequence of human SIGLEC8 on CHO-S-hSIGLEC8 cells (Q9NYZ4 17-363): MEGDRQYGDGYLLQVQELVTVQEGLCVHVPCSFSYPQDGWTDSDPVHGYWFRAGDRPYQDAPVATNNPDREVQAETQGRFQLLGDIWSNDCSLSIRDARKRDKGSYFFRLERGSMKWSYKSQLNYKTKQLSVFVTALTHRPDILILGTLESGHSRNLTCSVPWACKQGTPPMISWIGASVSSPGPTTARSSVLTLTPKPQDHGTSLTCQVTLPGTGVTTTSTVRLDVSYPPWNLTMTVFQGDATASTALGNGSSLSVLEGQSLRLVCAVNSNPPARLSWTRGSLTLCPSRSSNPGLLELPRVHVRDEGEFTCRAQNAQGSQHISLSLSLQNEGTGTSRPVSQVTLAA
Description: as §1, §2

[4] = target: human SIGLEC9 on CHO-S-hSIGLEC9 cells (human, UniProt Q9Y336 18-348)
Sequence of human SIGLEC9 on CHO-S-hSIGLEC9 cells (Q9Y336 18-348): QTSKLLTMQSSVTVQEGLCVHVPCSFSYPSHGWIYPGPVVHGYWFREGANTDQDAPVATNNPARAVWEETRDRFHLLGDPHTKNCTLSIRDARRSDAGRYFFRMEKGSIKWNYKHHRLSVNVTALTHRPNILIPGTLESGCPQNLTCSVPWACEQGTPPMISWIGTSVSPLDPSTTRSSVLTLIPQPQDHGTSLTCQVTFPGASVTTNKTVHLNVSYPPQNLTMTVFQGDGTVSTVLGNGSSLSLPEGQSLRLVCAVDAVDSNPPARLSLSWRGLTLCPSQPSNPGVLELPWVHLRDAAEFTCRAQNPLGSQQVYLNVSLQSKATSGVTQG
Description: as §1, §2

[5] = target: T2, human SIGLEC10 on CHO-S-hSIGLEC10 cells
Description: as §1, §2

[6] = target: human SIGLEC12 on CHO-S-hSIGLEC12 cells (human, UniProt Q96PQ1 19-481)
Sequence of human SIGLEC12 on CHO-S-hSIGLEC12 cells (Q96PQ1 19-481): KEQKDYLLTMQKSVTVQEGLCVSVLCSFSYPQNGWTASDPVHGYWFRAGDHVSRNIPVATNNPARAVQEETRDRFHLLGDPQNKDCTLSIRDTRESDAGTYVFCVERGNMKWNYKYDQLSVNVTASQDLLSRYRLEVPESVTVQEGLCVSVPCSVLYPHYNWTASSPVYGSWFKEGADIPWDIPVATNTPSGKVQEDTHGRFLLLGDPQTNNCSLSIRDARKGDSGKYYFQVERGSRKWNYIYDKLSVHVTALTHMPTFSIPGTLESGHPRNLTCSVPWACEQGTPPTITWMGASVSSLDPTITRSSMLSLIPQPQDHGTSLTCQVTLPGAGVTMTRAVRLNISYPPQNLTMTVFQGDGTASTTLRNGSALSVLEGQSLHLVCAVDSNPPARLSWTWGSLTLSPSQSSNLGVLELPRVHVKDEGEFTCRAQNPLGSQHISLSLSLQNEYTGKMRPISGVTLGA
Description: as §1, §2

Binder	Percentage of Positive Cells [1] [%]	binding result [1]	Percentage of Positive Cells [2] [%]	binding result [2]	Percentage of Positive Cells [3] [%]	binding result [3]	Percentage of Positive Cells [4] [%]	binding result [4]	Percentage of Positive Cells [5] [%]	binding result [5]	Percentage of Positive Cells [6] [%]	binding result [6]
anti-SIGLEC15 antibody 23F4 (antibody, human IgG1, V domains shown) VH: QVQLQQWGAGLLKPSETLSLTCAVYGGSFSGYFWSWIRQPPGKGLEWIGEINHSGSTNYNPSLKSRVTLSVDTSKNQFSLKLSSVTAADTAVYYCAREGDSSSWGNWFDPWGQGTLVTVSS VL: EIVLTQSPGTLSLSPGERATLSCRASQSVSSSYLAWYQQKPGQAPRFLIYGASSRATGIPDRFSGSGSGTDFTLTISRLEPEDFAVYYCQQFGNSPLTFGGGTKVEIK	0.8	no binding	1.5	no binding	0.6	no binding	0.7	no binding	1.6	no binding	0.4	no binding
anti-SIGLEC15 antibody 10A7 (antibody, human IgG1, V domains shown) VH: EVQLVQSGGGLVQPGGSLRLSCAASGFTFSNYEMNWVRQAPGKGLEWISYISNSGSTIYYADSVKGRFTISRDDAKNSLYLQMNSLRAEDTAVYYCAREDYDSSGYYWFDPWGQGTPVTVSS VL: DIQLTQSPSSVSASVGDRVTITCRASQGISSWLAWYQQKPGKAPKLLIYAASSLQSGVPSRFSGSGSGTDFTLTINSLQPEDFATYYCQQTNSFPLTFGGGTKVEIK	1.1	no binding	0.7	no binding	0.1	no binding	0.3	no binding	1.4	no binding	0	no binding
anti-SIGLEC15 antibody 10C9 (antibody, human IgG1, V domains shown) VH: QVQLVQSGAEVKKPGATVKVSCKASGYTFTNYGFSWVRQAPGQGLEWMGWINTYNDNTNYAQKFQGRVTMTTDTSTSTAYMELRSLRSDDTAVYYCARDGLWFGELPHYFDYWGQGTLVTVSS VL: DIQLTQSPLSSPVTLGQPASISCRSSQSLVNSDGETFLSWLQQRPGQPPRLLIYKISNRFSGVPDRFSGSGAGTDFTLKISRVEAEDVGVYYCMQATQFPHTFGQGTKLEIK	1.2	no binding	0.5	no binding	0.3	no binding	0.1	no binding	1.5	no binding	0.1	no binding
